Substitutions are numbered along the chain they refer to. Names may count otherwise.
Columns and labels:
[1] = target: T1, tumor necrosis factor alpha converting enzyme (TACE), endogenous (human, UniProt P78536 215-824); assay: co-immunofluorescence (co-localisation) in PC-3U cells
T1 construct: whole, on cells; also called ADAM17

[2] = target: Presenilin 1 (PS1), endogenous (human, UniProt P49768 1-467); assay: co-immunoprecipitation from transfected PC-3U cells

T1 sequence (P78536 215-824): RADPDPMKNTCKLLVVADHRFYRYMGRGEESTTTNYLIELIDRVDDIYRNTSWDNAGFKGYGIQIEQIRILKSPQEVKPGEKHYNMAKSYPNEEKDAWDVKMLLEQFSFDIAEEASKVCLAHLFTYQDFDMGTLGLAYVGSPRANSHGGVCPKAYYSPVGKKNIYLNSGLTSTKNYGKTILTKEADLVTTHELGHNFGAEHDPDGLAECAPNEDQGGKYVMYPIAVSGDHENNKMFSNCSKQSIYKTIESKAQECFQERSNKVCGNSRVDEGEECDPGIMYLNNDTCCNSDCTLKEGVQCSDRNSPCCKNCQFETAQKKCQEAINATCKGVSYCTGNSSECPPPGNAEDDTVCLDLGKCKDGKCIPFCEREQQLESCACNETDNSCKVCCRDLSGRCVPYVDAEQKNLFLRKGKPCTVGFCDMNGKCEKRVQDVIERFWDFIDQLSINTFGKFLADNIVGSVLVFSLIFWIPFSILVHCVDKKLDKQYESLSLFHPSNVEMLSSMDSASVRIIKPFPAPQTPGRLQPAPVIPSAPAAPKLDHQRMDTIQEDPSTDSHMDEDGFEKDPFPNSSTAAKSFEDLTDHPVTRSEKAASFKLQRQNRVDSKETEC

B1: type I receptor of transforming growth factor beta (TβRI), endogenous, full length (receptor)
chain: LQCFCHLCTKDNFTCVTDGLCFVSVTETTDKVIHNSMCIAEIDLIPRDRPFVCAPSSKTGSVTTTYCCNQDHCNKIELPTTVKSSPGLGPVELAAVIAGPVCFVCISLMLMVYICHNRTVIHHRVPNEEDPSLDRPFISEGTTLKDLIYDMTTSGSGSGLPLLVQRTIARTIVLQESIGKGRFGEVWRGKWRGEEVAVKIFSSREERSWFREAEIYQTVMLRHENILGFIAADNKDNGTWTQLWLVSDYHEHGSLFDYLNRYTVTVEGMIKLALSTASGLAHLHMEIVGTQGKPAIAHRDLKSKNILVKKNGTCCIADLGLAVRHDSATDTIDIAPNHRVGTKRYMAPEVLDDSINMKHFESFKRADIYAMGLVFWEIARRCSIGGIHEDYQLPYYDLVPSDPSVEEMRKVVCEQKLRPNIPNRWQSCEALRVMAKIMRECWYANGAARLTALRIKKTLSQLSQQEGIKM
notes: Endogenous receptor of human PC-3U prostate cancer cells, studied in cell lysates, cell fractions and fixed cells; also called TβRI-FL; ALK5
Question: Does B1 bind [1]?
Answer: Result: binds

B2: HA-tagged caE161A TβRI mutant (HA-ca E161A) (receptor)
chain: B1 chain with E128A, T171D
notes: Expressed by transient transfection in PC-3U cells; also called HA-E161A; E161A mutant; not shown: HA tag fused to the C-terminus
Question: Does B2 bind [2]?
Answer: Result: no binding

Source: US20140140998A1 (LUDWIG INSTITUTE FOR CANCER RESEARCH, published 2014)
